# US20250179144A1
# B1: soluble G115 Vγ9Vδ2+ TCR His85γ-Ala (TCR, from a related filing, V domains shown)
# V domain 1: AIELVPEHQTVPVSIGVPATLRCSMKGEAIGNYYINWYRKTQGNTMTFIYREKDIYGPGFKDNFQGDIDIAKNLAVLKILAPSERDEGSYYCACDTLGMGGEYTDKLIFGKGTRVTVEP
# V domain 2: AGHLEQPQISSTKTLSKTARLECVVSGITISATSVYWYRERPGEVIQFLVSISYDGTVRKESGIPSGKFEVDRIPETSTSTLTIANVEKQDIATYYCALWEAQQELGKKIKVFGPGTKLIITD
# B2: G115 Vγ9Vδ2+ TCR tetramer with combined His85γ-Ala and Glu52δ-Ala mutations (TCR, from a related filing, V domains shown)
# V domain 1: AIELVPEHQTVPVSIGVPATLRCSMKGEAIGNYYINWYRKTQGNTMTFIYRAKDIYGPGFKDNFQGDIDIAKNLAVLKILAPSERDEGSYYCACDTLGMGGEYTDKLIFGKGTRVTVEP
# V domain 2: AGHLEQPQISSTKTLSKTARLECVVSGITISATSVYWYRERPGEVIQFLVSISYDGTVRKESGIPSGKFEVDRIPETSTSTLTIANVEKQDIATYYCALWEAQQELGKKIKVFGPGTKLIITD
# B3: soluble G115 Vγ9Vδ2+ TCR Glu52δ-Ala (TCR, from a related filing, V domains shown)
# V domain 1: AIELVPEHQTVPVSIGVPATLRCSMKGEAIGNYYINWYRKTQGNTMTFIYRAKDIYGPGFKDNFQGDIDIAKNLAVLKILAPSERDEGSYYCACDTLGMGGEYTDKLIFGKGTRVTVEP
# V domain 2: AGHLEQPQISSTKTLSKTARLECVVSGITISATSVYWYRERPGEVIQFLVSISYDGTVRKESGIPSGKFEVDRIPETSTSTLTIHNVEKQDIATYYCALWEAQQELGKKIKVFGPGTKLIITD
# B4: G115 Vγ9Vδ2+ TCR tetramer Lys108γ-Ala (TCR, from a related filing, V domains shown)
# V domain 1: AIELVPEHQTVPVSIGVPATLRCSMKGEAIGNYYINWYRKTQGNTMTFIYREKDIYGPGFKDNFQGDIDIAKNLAVLKILAPSERDEGSYYCACDTLGMGGEYTDKLIFGKGTRVTVEP
# V domain 2: AGHLEQPQISSTKTLSKTARLECVVSGITISATSVYWYRERPGEVIQFLVSISYDGTVRKESGIPSGKFEVDRIPETSTSTLTIHNVEKQDIATYYCALWEAQQELGAKIKVFGPGTKLIITD
# B5: soluble G115 Vγ9Vδ2+ TCR Lys53δ-Ala (TCR, from a related filing)
# TCR delta: AIELVPEHQTVPVSIGVPATLRCSMKGEAIGNYYINWYRKTQGNTMTFIYREADIYGPGFKDNFQGDIDIAKNLAVLKILAPSERDEGSYYCACDTLGMGGEYTDKLIFGKGTRVTVEPRSQPHTKPSVFVMKNGTNVACLVKEFYPKDIRINLVSSKKITEFDPAIVISPSGKYNAVKLGKYEDSNSVTCSVQHDNKTVHSTDFEVKTDSTDHVKPKETENTKQPSKSCHKPKAIVHTEK
# TCR gamma: AGHLEQPQISSTKTLSKTARLECVVSGITISATSVYWYRERPGEVIQFLVSISYDGTVRKESGIPSGKFEVDRIPETSTSTLTIHNVEKQDIATYYCALWEAQQELGKKIKVFGPGTKLIITDKQLDADVSPKPTIFLPSIAETKLQKAGTYLCLLEKFFPDVIKIHWEEKKSNTILGSQEGNTMKTNDTYMKFSWLTVPEKSLDKEHRCIVRHENNKNGVDQEIIFPPIKTDVITMDPKDNCSKDANDTLLLQLTNTSA
# What was measured:
# [1] = biological target: BTN2A1 (WT) and BTN3A1 (Glu106-Ala) co-expressed on NIH-3T3 cells (human) (UniProt Q7KYR7); experiment: flow cytometry on NIH-3T3 cells co-transfected with BTN2A1 WT and BTN3A1 Glu106-Ala, zoledronate (100 µM)
# [2] = biological target: BTN2A1 (WT) and BTN3A1 (WT) co-expressed on NIH-3T3 cells (human) (UniProt Q7KYR7); experiment: flow cytometry on NIH-3T3 cells co-transfected with BTN2A1 WT and BTN3A1 WT, no zoledronate
# [3] = biological target: BTN2A1 (Ser44-Arg) and BTN3A1 (Glu106-Ala) co-expressed on NIH-3T3 cells (human) (UniProt Q7KYR7); experiment: flow cytometry on NIH-3T3 cells co-transfected with BTN2A1 Ser44-Arg and BTN3A1 Glu106-Ala, no zoledronate
# [4] = biological target: BTN2A1 (Ser44-Arg) and BTN3A1 (WT) co-expressed on NIH-3T3 cells (human) (UniProt Q7KYR7); experiment: flow cytometry on NIH-3T3 cells co-transfected with BTN2A1 Ser44-Arg and BTN3A1 WT, no zoledronate
# [5] = biological target: BTN2A1-BTN3A1-zipper ectodomain complex (construct #1, long linker version with high affinity zippers) (human); experiment: SPR, equilibrium; BTN2A1-BTN3A1 ectodomain complex immobilised, soluble TCR injected
# [6] = biological target: BTN2A1 (WT) and BTN3A1 (WT) co-expressed on NIH-3T3 cells (human) (UniProt Q7KYR7); experiment: flow cytometry on NIH-3T3 cells co-transfected with BTN2A1 WT and BTN3A1 WT, zoledronate (100 µM)
# [7] = biological target: BTN2A1 (WT) and BTN3A1 (Glu106-Ala) co-expressed on NIH-3T3 cells (human) (UniProt Q7KYR7); experiment: flow cytometry on NIH-3T3 cells co-transfected with BTN2A1 WT and BTN3A1 Glu106-Ala, no zoledronate
# [8] = biological target: BTN2A1 (Ser44-Arg) and BTN3A1 (WT) co-expressed on NIH-3T3 cells (human) (UniProt Q7KYR7); experiment: flow cytometry on NIH-3T3 cells co-transfected with BTN2A1 Ser44-Arg and BTN3A1 WT, zoledronate (100 µM)
# [9] = biological target: full-length human BTN3A1 on transfected cells (human) (UniProt O00481); experiment: flow cytometry, γδTCR tetramer-PE on BTN3A1-transfected NIH-3T3 cells treated with isotype IgG1κ (black number); SAv control 25
# [10] = biological target: BTN2A1 (Ser44-Arg) and BTN3A1 (Glu106-Ala) co-expressed on NIH-3T3 cells (human) (UniProt Q7KYR7); experiment: flow cytometry on NIH-3T3 cells co-transfected with BTN2A1 Ser44-Arg and BTN3A1 Glu106-Ala, zoledronate (100 µM)
# [11] = biological target: BTN2A1 ectodomain homodimer, disulfide-linked (C-terminal Cys247, acidic or basic leucine zipper) (human) (UniProt Q7KYR7); experiment: SPR, soluble TCR over immobilised BTN2A1 homodimer, KD at equilibrium
# [12] = biological target: full-length human BTN3A1 on transfected cells pre-treated (cross-linked) with anti-BTN3A mAb clone 20.1 (human); experiment: flow cytometry, FRET (YG 670/30) between TCR tetramer-PE and anti-BTN3A 20.1-AF647 on BTN3A1+ NIH-3T3 cells; with IgG1κ-AF647 the gate holds 0.02, with SAv 0
# full-length human BTN3A1 on transfected cells pre-treated (cross-linked) with anti-BTN3A mAb clone 20.1 (human), sequence (O00481 30-513): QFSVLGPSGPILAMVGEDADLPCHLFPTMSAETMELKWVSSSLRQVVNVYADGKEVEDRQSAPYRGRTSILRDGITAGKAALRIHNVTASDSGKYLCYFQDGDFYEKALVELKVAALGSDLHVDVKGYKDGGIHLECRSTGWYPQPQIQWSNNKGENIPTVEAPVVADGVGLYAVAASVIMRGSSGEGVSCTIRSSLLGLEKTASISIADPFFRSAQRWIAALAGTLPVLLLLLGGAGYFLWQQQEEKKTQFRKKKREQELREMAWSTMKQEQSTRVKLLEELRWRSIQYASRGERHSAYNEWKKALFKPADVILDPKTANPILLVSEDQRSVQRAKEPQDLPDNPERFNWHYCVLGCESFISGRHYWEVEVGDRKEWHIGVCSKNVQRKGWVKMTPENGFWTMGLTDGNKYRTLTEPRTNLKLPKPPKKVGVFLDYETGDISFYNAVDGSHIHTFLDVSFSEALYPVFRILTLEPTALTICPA
# full-length human BTN3A1 on transfected cells (human), sequence (O00481 30-513): as above
# BTN2A1 (WT) and BTN3A1 (WT) co-expressed on NIH-3T3 cells (human), sequence (Q7KYR7 29-527, chain 1 of 2): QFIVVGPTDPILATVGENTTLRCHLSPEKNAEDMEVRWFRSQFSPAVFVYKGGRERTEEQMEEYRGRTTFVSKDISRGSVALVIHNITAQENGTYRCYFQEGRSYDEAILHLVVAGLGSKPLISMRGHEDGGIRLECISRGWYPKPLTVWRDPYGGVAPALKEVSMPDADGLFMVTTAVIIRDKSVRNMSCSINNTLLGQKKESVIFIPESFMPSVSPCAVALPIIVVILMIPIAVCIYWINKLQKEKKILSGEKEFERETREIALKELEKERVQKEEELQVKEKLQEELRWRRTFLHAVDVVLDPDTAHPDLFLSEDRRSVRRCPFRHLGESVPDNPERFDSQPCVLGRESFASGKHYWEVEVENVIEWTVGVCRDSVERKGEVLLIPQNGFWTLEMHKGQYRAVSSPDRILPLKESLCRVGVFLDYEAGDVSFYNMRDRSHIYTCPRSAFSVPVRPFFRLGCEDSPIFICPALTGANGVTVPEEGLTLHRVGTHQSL
# BTN2A1 (WT) and BTN3A1 (WT) co-expressed on NIH-3T3 cells (human), sequence (chain, as listed by the source, chain 2 of 2): as the sequence (O00481 30-513) above
# BTN2A1 (WT) and BTN3A1 (Glu106-Ala) co-expressed on NIH-3T3 cells (human), sequence (Q7KYR7 29-527 limits assumed, chain 1 of 2): as the sequence (Q7KYR7 29-527, chain 1 of 2) above
# BTN2A1 (WT) and BTN3A1 (Glu106-Ala) co-expressed on NIH-3T3 cells (human), sequence (chain, as listed by the source E106A E106A limits assumed, chain 2 of 2): as the sequence (O00481 30-513) above, with E106A counted along it
# BTN2A1 (Ser44-Arg) and BTN3A1 (WT) co-expressed on NIH-3T3 cells (human), sequence (Q7KYR7 29-527 S72R, chain 1 of 2): as the sequence (Q7KYR7 29-527, chain 1 of 2) above, with S44R counted along it
# BTN2A1 (Ser44-Arg) and BTN3A1 (WT) co-expressed on NIH-3T3 cells (human), sequence (chain, as listed by the source S44R S44R, chain 2 of 2): as the sequence (O00481 30-513) above
# BTN2A1 (Ser44-Arg) and BTN3A1 (Glu106-Ala) co-expressed on NIH-3T3 cells (human), sequence (Q7KYR7 29-527 S72R limits assumed, chain 1 of 2): as the sequence (Q7KYR7 29-527, chain 1 of 2) above, with S44R counted along it
# BTN2A1 (Ser44-Arg) and BTN3A1 (Glu106-Ala) co-expressed on NIH-3T3 cells (human), sequence (chain, as listed by the source S44R E106A S44R E106A limits assumed, chain 2 of 2): as the sequence (O00481 30-513) above, with E106A counted along it
# BTN2A1 ectodomain homodimer, disulfide-linked (C-terminal Cys247, acidic or basic leucine zipper) (human), sequence (Q7KYR7 29-248, chain 1 of 2): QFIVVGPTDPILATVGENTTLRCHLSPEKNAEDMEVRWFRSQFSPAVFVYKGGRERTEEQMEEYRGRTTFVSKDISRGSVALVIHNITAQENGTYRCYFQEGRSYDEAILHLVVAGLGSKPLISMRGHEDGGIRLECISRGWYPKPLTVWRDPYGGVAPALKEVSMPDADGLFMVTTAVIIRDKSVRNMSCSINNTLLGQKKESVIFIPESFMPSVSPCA
# BTN2A1 ectodomain homodimer, disulfide-linked (C-terminal Cys247, acidic or basic leucine zipper) (human), sequence (Q7KYR7 29-248, chain 2 of 2): as the sequence (Q7KYR7 29-248, chain 1 of 2) above
binder,measurement,setting,value
B1,mean fluorescence intensity of TCR tetramer (black gate),[1],23300
same,mean fluorescence intensity of TCR tetramer (black gate),[2],635
same,mean fluorescence intensity of TCR tetramer (black gate),[3],11300
same,mean fluorescence intensity of TCR tetramer (black gate),[4],10800
same,Kd,[5],740 µM
same,mean fluorescence intensity of TCR tetramer (black gate),[6],1700
same,mean fluorescence intensity of TCR tetramer (black gate),[7],7210
same,mean fluorescence intensity of TCR tetramer (black gate),[8],28100
same,MFI of PE (GFP+ gate),[9],33
same,mean fluorescence intensity of TCR tetramer (black gate),[10],26600
B2,MFI of PE (GFP+ gate),[9],38
B3,Kd,[11],93 µM
same,Kd,[5],140 µM
same,MFI of PE (GFP+ gate),[9],32
B4,MFI of PE (GFP+ gate),[9],25
B5,Kd,[11],81 µM
same,% cells in the FRET gate,[12],34%
